PMC7785020, “A unique hormonal recognition feature of the human glucagon-like peptide-2 receptor” (Cell Research, 2020)

Key:
Experiment in all cases: radioligand binding; competition on transiently transfected COS-7 cells: unlabeled GLP-2(1–33) 0.1 nM to 1 μM against 10–15 pM [125I]GLP-2(1–33, M10Y); 4 h, 4 °C; 50 mM HEPES pH 7.4, 1 mM CaCl2, 5 mM MgCl2, 0.5% BSA; three-parameter logistic fit
[1] = biological target: GLP-2R D244^ECL1A (human) (UniProt O95838)
GLP-2R ECL1 (GLP-1R) = GLP-2R ECL1 (GLP-1R) (UniProt O95838)
[2] = biological target: GLP-2R ECL1 (poly-alanine) (human) (UniProt O95838)
[3] = biological target: GLP-2R H268^3.37A (human) (UniProt O95838)
[4] = biological target: GLP-2R K414^7.35 A (human) (UniProt O95838)
[5] = biological target: GLP-2R N247^ECL1A (human) (UniProt O95838)
[6] = biological target: GLP-2R N334^ECL2 A (human) (UniProt O95838)
[7] = biological target: GLP-2R R242^ECL1A (human) (UniProt O95838)
[8] = biological target: GLP-2R R344^5.40A (human) (UniProt O95838)
[9] = biological target: GLP-2R W249^ECL1A (human) (UniProt O95838)
[10] = biological target: GLP-2R W340^5.36A (human) (UniProt O95838)
[11] = biological target: GLP-2R Y182^1.43A (human) (UniProt O95838)
[12] = biological target: Human GLP-2R WT (1–553) (human) (UniProt O95838)

GLP-2R N334^ECL2 A (human), sequence (O95838 whole entry N334A): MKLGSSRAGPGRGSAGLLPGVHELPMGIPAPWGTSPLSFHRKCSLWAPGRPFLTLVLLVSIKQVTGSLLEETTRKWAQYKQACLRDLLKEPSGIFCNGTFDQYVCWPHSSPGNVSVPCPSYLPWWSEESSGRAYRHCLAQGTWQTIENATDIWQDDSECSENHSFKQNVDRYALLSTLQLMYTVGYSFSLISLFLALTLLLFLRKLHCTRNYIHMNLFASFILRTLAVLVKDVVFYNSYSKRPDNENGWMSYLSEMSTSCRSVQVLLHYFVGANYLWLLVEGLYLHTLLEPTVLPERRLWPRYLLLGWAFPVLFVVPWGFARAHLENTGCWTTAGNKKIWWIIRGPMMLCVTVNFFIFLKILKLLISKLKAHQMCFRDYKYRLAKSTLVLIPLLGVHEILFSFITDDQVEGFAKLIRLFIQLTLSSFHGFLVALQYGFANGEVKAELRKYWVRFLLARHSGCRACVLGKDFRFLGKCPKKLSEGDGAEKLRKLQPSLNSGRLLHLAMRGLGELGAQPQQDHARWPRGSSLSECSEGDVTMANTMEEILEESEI
GLP-2R Y182^1.43A (human), sequence (O95838 whole entry Y182A): as the sequence (O95838 whole entry N334A) above, with Y182A, A334N counted along it
GLP-2R R242^ECL1A (human), sequence (O95838 whole entry R242A): as the sequence (O95838 whole entry N334A) above, with R242A, A334N counted along it
GLP-2R H268^3.37A (human), sequence (O95838 whole entry H268A): as the sequence (O95838 whole entry N334A) above, with H268A, A334N counted along it
GLP-2R D244^ECL1A (human), sequence (O95838 whole entry D244A): as the sequence (O95838 whole entry N334A) above, with D244A, A334N counted along it
GLP-2R ECL1 (GLP-1R), sequence (O95838 whole entry): as the sequence (O95838 whole entry N334A) above, with A334N counted along it
GLP-2R ECL1 (poly-alanine) (human), sequence (O95838 whole entry): as the sequence (O95838 whole entry N334A) above, with A334N counted along it
GLP-2R K414^7.35 A (human), sequence (O95838 whole entry K414A): as the sequence (O95838 whole entry N334A) above, with A334N, K414A counted along it

% Binding of WT [1]: 69.1%
% Binding of WT (GLP-2R ECL1 (GLP-1R)): 3.4%
% Binding of WT [2]: 3%
% Binding of WT [3]: 2.1%
% Binding of WT [4]: 15.2%
% Binding of WT [5]: 131%
% Binding of WT [6]: 2.4%
% Binding of WT [7]: 4.2%
% Binding of WT [8]: 5%
% Binding of WT [9]: 2.2%
% Binding of WT [10]: 7.3%
% Binding of WT [11]: 3.4%
% Binding of WT [12]: 99.2%
Substance: [^125I]GLP-2(1–33, M10Y) (peptide)
